Measurements published in publication PMC5765006 (2018).

Target: soluble extracellular domain of human TM (Homo sapiens (Human), UniProt P07204)
Test: competition pull-down (native Ang1 inhibits thrombin/TM co-precipitation on Ni-NTA, western blot); direct pull-down only with BowAng1; indirect readout: displacement of thrombin (5 nM) from soluble TM

Chain of soluble extracellular domain of human TM (P07204 19-515): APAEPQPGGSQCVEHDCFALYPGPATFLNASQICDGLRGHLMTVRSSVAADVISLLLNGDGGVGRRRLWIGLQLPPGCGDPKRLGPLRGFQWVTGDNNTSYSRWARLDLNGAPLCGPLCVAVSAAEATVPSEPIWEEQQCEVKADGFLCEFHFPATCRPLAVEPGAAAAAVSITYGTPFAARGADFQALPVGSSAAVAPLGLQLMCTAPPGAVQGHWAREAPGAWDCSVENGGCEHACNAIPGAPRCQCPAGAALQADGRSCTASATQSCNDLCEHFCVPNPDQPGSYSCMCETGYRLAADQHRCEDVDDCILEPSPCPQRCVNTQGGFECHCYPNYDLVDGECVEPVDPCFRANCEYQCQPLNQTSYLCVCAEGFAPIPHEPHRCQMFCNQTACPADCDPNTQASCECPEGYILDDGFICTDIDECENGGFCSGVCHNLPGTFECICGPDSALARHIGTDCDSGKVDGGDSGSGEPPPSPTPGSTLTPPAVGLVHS

binding result: binds
B1: native human Ang1 (protein)
chain: HIGCSNQRRSPENSGRRYNRIQHGQCAYTFILPEHDGNCRESTTDQYNTNALQRDAPHVEPDFSSQKLQHLEHVMENYTQWLQKLENYIVENMKSEMAQIQQNAVQNHTATMLEIGTSLLSQTAEQTRKLTDVETQVLNQTSRLEIQLLENSLSTYKLEKQLLQQTNEILKIHEKNSLLEHKILEMEGKHKEELDTLKEEKENLQGLVTRQTYIIQELEKQLNRATTNNSVLQKQQLELMDTVHNLVNLCTKEGVLLKGGKREEEKPFRDCADVYQAGFNKSGIYTIYINNMPEPKKVFCNMDVNGGGWTVIQHREDGSLDFQRGWKEYKMGFGNPSGEYWLGNEFIFAITSQRQYMLRIELMDWEGNRAYSQYDRFHIGNEKQNYRLYLKGHTGTAGKQSSLILHGADFSTKDADNDNCMCKCALMLTGGWWFDACGPSNLNGMFYTAGQNHGKLNGIKWHYFKGPSYSLRSTTMMIRPLDF
